In patent publication US20190077860A1 (EISAI R AND D MANAGEMENT, published 2019):
Where a chain is given by its changes, count along the chain named. Each block holds one binder with its values, some of them ahead of it.

Assays:
SEAP-His = SEAP-His (UniProt P05187 23-511); experiment: ELISA
Procedure: (§1) Each well of a 96-well plate (Nunc) was coated with a rabbit anti-6-His antibody (Bethyl Laboratories). Each well was […] After washing with 0.05% Tween 20/PBS (Nacalai Tesque) three times, the SEAP-His protein of human EphA1, EphA2, EphA3, EphA4, EphA5, EphA6, EphA7, EphA8, EphA10, EphB1, EphB2, EphB3, EphB4, or EphB6 was added (final concentration: 1 nM) to each well and incubated at room temperature for 1 hour. After washing three times, the humanized antibody was added to each well and incubated at room temperature for 1 hour. After washing three times, a horseradish peroxidase-labeled donkey […] antibody (Jackson ImmunoResearch Laboratories) was added thereto and incubated at room temperature for 1 hour. After washing three times, TMB Microwell Peroxidase Substrate System (Kirkegaard & Perry Laboratories (KPL)) was added to each well. After confirmation of moderate color development, an equal amount of a reaction stopping solution (1N H₂SO₄, Wako Pure Chemical Industries) was added to each well. The absorbance at 450 nm was read using a microplate reader (Thermo Fisher Scientific).

[1] = molecular target: T1, human EphA10 extracellular region-SEAP-His protein (human, UniProt Q5JZY3 34-565); experiment: ELISA
T1 construct: extracellular domain; also called hEphA10-SEAP-His
T1 sequence (looked up): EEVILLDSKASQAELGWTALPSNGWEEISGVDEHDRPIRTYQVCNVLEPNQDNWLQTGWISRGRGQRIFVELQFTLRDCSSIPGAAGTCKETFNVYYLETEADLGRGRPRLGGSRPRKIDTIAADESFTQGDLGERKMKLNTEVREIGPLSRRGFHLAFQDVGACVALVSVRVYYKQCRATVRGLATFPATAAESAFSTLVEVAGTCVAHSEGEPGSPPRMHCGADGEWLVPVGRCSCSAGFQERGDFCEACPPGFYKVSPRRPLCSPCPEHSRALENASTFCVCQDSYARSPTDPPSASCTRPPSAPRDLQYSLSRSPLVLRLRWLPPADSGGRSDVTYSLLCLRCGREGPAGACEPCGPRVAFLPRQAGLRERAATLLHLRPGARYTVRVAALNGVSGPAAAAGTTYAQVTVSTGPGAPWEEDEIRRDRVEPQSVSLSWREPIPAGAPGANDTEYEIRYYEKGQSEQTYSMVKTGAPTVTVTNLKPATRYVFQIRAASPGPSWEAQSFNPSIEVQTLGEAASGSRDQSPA
Procedure: as §1

[2] = molecular target: T2, human EphA4 extracellular region-SEAP-His protein (human, UniProt P54764 20-547); experiment: SPR, Ab captured
T2 construct: also called hEphA4-SEAP-His
Procedure: The binding affinity of each anti-EphA4 monoclonal humanized antibody obtained in Example 16 for human EphA4 was determined by surface plasmon resonance (SPR) using Biacore T200 (GE Healthcare). First, for the assay of antibody A, a rat anti-mouse IgG₁ antibody produced with a conventional method by immunizing rat with mouse IgG₁ antibody was immobilized on sensor chip CM5. The immobilization of the rat anti-mouse IgG1 antibody on sensor chip CM5 was performed by the amine coupling method using N-hydroxysuccinimide (NHS) and N-ethyl-N′-(3-dimethylaminopropyl)carbodiimide hydrochloride (EDC). Ethanolamine was used in blocking (the sensor chip and the reagents for immobilization were all manufactured by GE Healthcare). The antibody was diluted with a buffer solution for immobilization (10 mM sodium acetate, pH 4.5) and immobilized on the sensor chip according to the protocol attached to Biacore T200. For the assay of each humanized monoclonal antibody, a protein A chip (GE Healthcare, 29-1383-03) was used. Antibody A or the humanized monoclonal antibody was diluted with a running buffer solution HBS-EP (GE Healthcare), injected onto only flow cell 2 for 120 seconds, and captured (captured amount: approximately 30 to 60 RU). Subsequently, human EphA4 extracellular region-SEAP-His protein serially diluted in the range of 50, 16.7, 5.6, 1.9, and 0.6 nM using HBS-EP was sequentially added from the lower toward higher concentration sides without regeneration operation. Binding reaction curves were sequentially observed at the time of the addition (association phase, for 120 sec) and after the completion of the addition (dissociation phase, for 900 sec). After the completion of each observation, the sensor chip was regenerated by the addition of 3 M MgCl₂ (for 60 sec) or 10 mM Glycine-HCl pH 1.5 (for 30 sec). The obtained binding reaction curves were subjected to fitting analysis with 1:1 binding models using software BIA evaluation attached to the system to calculate the affinity (KD=kd/ka) for human EphA4 (Table 6).

[3] = molecular target: T2, human EphA4 extracellular …; experiment: competition ELISA, competitor human Ephrin A5-Fc
Procedure: Each anti-EphA4 monoclonal humanized antibody obtained in Example 16 was evaluated for its inhibitory activity against the binding between human EphA4 and its human ligand according to the following steps. Each well of a 96-well plate (Nunc) was coated with an anti-alkaline phosphatase antibody (Thermo Fisher Scientific). After incubation overnight at 4° C., each well was blocked with 1% BlockAce (DS Pharma Biomedical) at room temperature for 1 hour. After washing with 0.05% Tween 20/PBS (Thermo Fisher Scientific) three times, the human EphA4 extracellular region-SEAP-His protein obtained by the method of Example 2 was added (final concentration: 10 nM) to each well and incubated at room temperature for 1 hour. After washing three times, a ligand and each serially diluted humanized antibody of antibody A (0, 0.003, 0.01, 0.03, 0.1, 0.3, 1, 3, 10, 30, 100, 300, 1000, and 3000 nM) were added to each well. The ligand used was biotinylated human Ephrin A5-Fc chimera (R&D Systems, final concentration: 0.7 nM). After incubation at room temperature for 1 hour and subsequent washing three times, horseradish peroxidase-labeled streptavidin (GE Healthcare) was added thereto and incubated at room temperature for 1 hour. After washing three times, a TMBZ (3,3′,5,5′-tetramethylbenzidine, Sigma-Aldrich) solution was added to each well and incubated at room temperature for 2 minutes. An equal amount of a reaction stopping solution (1N H₂SO₄, Wako Pure Chemical Industries) was added to each well. The absorbance at 450 nm was read using a microplate reader (PerkinElmer).

Sequence of SEAP-His (P05187 23-511): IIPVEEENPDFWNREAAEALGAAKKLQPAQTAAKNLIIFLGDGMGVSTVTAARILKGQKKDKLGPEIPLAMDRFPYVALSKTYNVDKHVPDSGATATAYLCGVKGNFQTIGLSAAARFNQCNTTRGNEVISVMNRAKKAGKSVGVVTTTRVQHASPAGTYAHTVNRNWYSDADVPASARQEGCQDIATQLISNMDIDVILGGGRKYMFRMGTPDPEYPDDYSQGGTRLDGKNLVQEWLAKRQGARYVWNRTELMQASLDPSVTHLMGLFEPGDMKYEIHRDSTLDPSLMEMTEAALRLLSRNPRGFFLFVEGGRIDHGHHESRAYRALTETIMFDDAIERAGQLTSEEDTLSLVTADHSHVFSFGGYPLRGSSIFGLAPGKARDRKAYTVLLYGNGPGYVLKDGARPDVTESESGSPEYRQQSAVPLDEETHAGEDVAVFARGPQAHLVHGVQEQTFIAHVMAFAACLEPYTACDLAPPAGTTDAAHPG
T2 sequence (P54764 20-547): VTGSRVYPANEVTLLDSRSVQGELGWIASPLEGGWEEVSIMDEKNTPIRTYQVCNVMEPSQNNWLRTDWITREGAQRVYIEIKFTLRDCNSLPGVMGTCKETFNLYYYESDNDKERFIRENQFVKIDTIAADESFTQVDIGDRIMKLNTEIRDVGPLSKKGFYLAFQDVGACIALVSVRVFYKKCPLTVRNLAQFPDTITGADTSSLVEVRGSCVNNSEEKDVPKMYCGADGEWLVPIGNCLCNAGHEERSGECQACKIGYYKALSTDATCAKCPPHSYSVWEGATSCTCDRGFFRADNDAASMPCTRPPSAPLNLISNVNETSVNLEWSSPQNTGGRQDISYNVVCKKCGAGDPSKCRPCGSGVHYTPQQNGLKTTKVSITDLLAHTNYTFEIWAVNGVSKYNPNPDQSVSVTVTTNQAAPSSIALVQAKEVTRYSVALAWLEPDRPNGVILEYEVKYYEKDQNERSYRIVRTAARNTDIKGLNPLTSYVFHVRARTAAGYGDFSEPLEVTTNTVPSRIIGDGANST

A450 as % of hEphA4-SEAP-His (SEAP-His): 6.1%
A450 as % of hEphA4-SEAP-His [1]: 5.8%
Kd [2]: 1.4 nM
koff [2]: 0.00042 s⁻¹
kon [2]: 300000 M⁻¹ s⁻¹
IC50 [3]: 3.6 nM
B1: humanized antibody No. 88 (antibody, human IgG1, kappa)
heavy: QVQLVQSGSELKKPGASVKVSCKASGYTFTDYSMHWVRQAPGQGLKWMGWINTETGEPTYAQGFTGRFVFSLDTSVSTAYLQISSLKAEDTAVYYCARIPLYYYGSRYWYFDVWGQGTTVTVSSASTKGPSVFPLAPSSKSTSGGTAALGCLVKDYFPEPVTVSWNSGALTSGVHTFPAVLQSSGLYSLSSVVTVPSSSLGTQTYICNVNHKPSNTKVDKRVEPKSCDKTHTCPPCPAPPAAAPSVFLFPPKPKDTLMISRTPEVTCVVVDVSHEDPEVQFNWYVDGVEVHNAKTKPREEQFNSTFRVVSVLTVVHQDWLNGKEYKCKVSNKGLPAPIEKTISKTKGQPREPQVYTLPPSREEMTKNQVSLTCLVKGFYPSDIAVEWESNGQPENNYKTTPPMLDSDGSFFLYSKLTVDKSRWQQGNVFSCSVMHEALHNHYTQKSLSLSPG
light: DIQMTQSPSSLSASVGDRVTITCRASENIYRNLAWYQQKPGKAPQLLLYAATNLADGVPSRFSGSGSGTDYTLTISSLQPEDFATYYCQHFWGTPWTFGQGTKVEIKRTVAAPSVFIFPPSDEQLKSGTASVVCLLNNFYPREAKVQWKVDNALQSGNSQESVTEQDSKDSTYSLSSTLTLSKADYEKHKVYACEVTHQGLSSPVTKSFNRGEC
notes: human Ig kappa; also called L1-6/HA2

A450 as % of hEphA4-SEAP-His (SEAP-His): 5.4%
A450 as % of hEphA4-SEAP-His [1]: 5.2%
Kd [2]: 1.4 nM
koff [2]: 0.00043 s⁻¹
kon [2]: 320000 M⁻¹ s⁻¹
IC50 [3]: 2.4 nM
B2: humanized antibody No. 140 (antibody, human IgG2)
heavy: QVQLVQSGSELKKPGASVKVSCKASGYTFTDYSMHWVRQAPGQGLKWMGWINTETGEPTYAQGFTGRFVFSLDTSVSTAYLQISSLKAEDTAVYYCARIPLYYYGSRYWYFDVWGQGTTVTVSSASTKGPSVFPLAPSSRSTSESTAALGCLVKDYFPEPVTVSWNSGALTSGVHTFPAVLQSSGLYSLSSVVTVPSSNFGTQTYTCNVDHKPSNTKVDKTVERKSCVECPPCPAPPAAAPSVFLFPPKPKDTLMISRTPEVTCVVVDVSHEDPEVQFNWYVDGVEVHNAKTKPREEQFNSTFRVVSVLTVVHQDWLNGKEYKCKVSNKGLPAPIEKTISKTKGQPREPQVYTLPPSREEMTKNQVSLTCLVKGFYPSDIAVEWESNGQPENNYKTTPPMLDSDGSFFLYSKLTVDKSRWQQGNVFSCSVMHEALHNHYTQKSLSLSPG
light: B1 light with Q45K, L48V
notes: human Ig kappa; also called L1-4/HA2

A450 as % of hEphA4-SEAP-His (SEAP-His): 5.7%
A450 as % of hEphA4-SEAP-His [1]: 5.5%
Kd [2]: 1.4 nM
koff [2]: 0.00053 s⁻¹
kon [2]: 370000 M⁻¹ s⁻¹
IC50 [3]: 3.3 nM
B3: humanized antibody No. 139 (antibody, human IgG2)
heavy: B2 heavy with K46E
light: B1 light with Q45K, L48V
notes: human Ig kappa; also called L1-4/HA1

A450 as % of hEphA4-SEAP-His (SEAP-His): 5.1%
A450 as % of hEphA4-SEAP-His [1]: 5%
Kd [2]: 1.3 nM
koff [2]: 0.00043 s⁻¹
kon [2]: 330000 M⁻¹ s⁻¹
IC50 [3]: 2.9 nM
B4: humanized antibody No. 138 (antibody, human IgG2)
heavy: B2 heavy with V2I
light: B1 light with Q45K, L48V
notes: human Ig kappa; also called L1-4/HA4

A450 as % of hEphA4-SEAP-His (SEAP-His): 5.7%
A450 as % of hEphA4-SEAP-His [1]: 5.7%
Kd [2]: 2 nM
koff [2]: 0.00078 s⁻¹
kon [2]: 400000 M⁻¹ s⁻¹
IC50 [3]: 3.6 nM
B5: humanized antibody No. 144 (antibody, human IgG2)
heavy: B2 heavy with K46E, Q62D, G63D, T65K
light: B1 light
notes: human Ig kappa; also called L1-6/HK1

A450 as % of hEphA4-SEAP-His (SEAP-His): 5.8%
A450 as % of hEphA4-SEAP-His [1]: 5.7%
Kd [2]: 1.3 nM
koff [2]: 0.00041 s⁻¹
kon [2]: 310000 M⁻¹ s⁻¹
IC50 [3]: 4.3 nM
B6: humanized antibody No. 89 (antibody, human IgG1, kappa)
heavy: B1 heavy with V2I
light: B1 light
notes: human Ig kappa; also called L1-6/HA4

A450 as % of hEphA4-SEAP-His (SEAP-His): 6.5%
A450 as % of hEphA4-SEAP-His [1]: 6.6%
Kd [2]: 1.3 nM
koff [2]: 0.00043 s⁻¹
kon [2]: 330000 M⁻¹ s⁻¹
IC50 [3]: 3.5 nM
B7: humanized antibody No. 92 (antibody, human IgG1, kappa)
heavy: B1 heavy with V2I, Q62D, G63D, T65K
light: B1 light
notes: human Ig kappa; also called L1-6/HK4

A450 as % of hEphA4-SEAP-His (SEAP-His): 5.8%
A450 as % of hEphA4-SEAP-His [1]: 5.4%
Kd [2]: 1.5 nM
koff [2]: 0.0005 s⁻¹
kon [2]: 340000 M⁻¹ s⁻¹
IC50 [3]: 3.7 nM
B8: humanized antibody No. 142 (antibody, human IgG2)
heavy: B2 heavy with Q62D, G63D, T65K
light: B1 light with Q45K, L48V
notes: human Ig kappa; also called L1-4/HK2

A450 as % of hEphA4-SEAP-His (SEAP-His): 5.2%
A450 as % of hEphA4-SEAP-His [1]: 5.1%
Kd [2]: 1.5 nM
koff [2]: 0.00055 s⁻¹
kon [2]: 360000 M⁻¹ s⁻¹
IC50 [3]: 4.5 nM
B9: humanized antibody No. 90 (antibody, human IgG1, kappa)
heavy: B1 heavy with K46E, Q62D, G63D, T65K
light: B1 light
notes: as for B5

A450 as % of hEphA4-SEAP-His (SEAP-His): 6.3%
A450 as % of hEphA4-SEAP-His [1]: 5.2%
Kd [2]: 1.5 nM
koff [2]: 0.00051 s⁻¹
kon [2]: 350000 M⁻¹ s⁻¹
IC50 [3]: 5.3 nM
B10: humanized antibody No. 143 (antibody, human IgG2)
heavy: B2 heavy with V2I, Q62D, G63D, T65K
light: B1 light with Q45K, L48V
notes: human Ig kappa; also called L1-4/HK4

A450 as % of hEphA4-SEAP-His (SEAP-His): 5%
A450 as % of hEphA4-SEAP-His [1]: 5.2%
Kd [2]: 1.6 nM
koff [2]: 0.00062 s⁻¹
kon [2]: 390000 M⁻¹ s⁻¹
IC50 [3]: 3 nM
B11: humanized antibody No. 141 (antibody, human IgG2)
heavy: B2 heavy with K46E, Q62D, G63D, T65K
light: B1 light with Q45K, L48V
notes: human Ig kappa; also called L1-4/HK1

A450 as % of hEphA4-SEAP-His (SEAP-His): 6.4%
A450 as % of hEphA4-SEAP-His [1]: 8.5%
Kd [2]: 1.3 nM
koff [2]: 0.00044 s⁻¹
kon [2]: 330000 M⁻¹ s⁻¹
IC50 [3]: 4.9 nM
B12: humanized antibody No. 91 (antibody, human IgG1, kappa)
heavy: B1 heavy with Q62D, G63D, T65K
light: B1 light
notes: human Ig kappa; also called L1-6/HK2
